Results reported in US20080025990A1 (Eli Lilly, published 2008).
Several values for one entry are separate records, joined by “and”; a condition that tells them apart may be missing. Equal entries are not always repeated. Each block holds one binder with its values, some of them ahead of it.

Tests used:
[1] = biological target: recombinant extracellular portion of human IGF-IR (soluble IGF-IR) (human) (UniProt P08069); assay: comparison of affinities (BIAcore, Table 3)
[2] = biological target: T1, native human IGF-IR on human tumor cells (human, UniProt P08069 31-1367); assay: inhibition of 125I-IGF-I binding to OV90 (ovarian) cells
T1 construct: whole, on cells; also called endogenous cellular IGF-IR; solubilized IGF-IR (from MCF7 lysate)

[3] = biological target: T1, native human IGF-IR on human tumor cells; assay: inhibition of 125I-IGF-I binding to BXPC3 (pancreatic) cells
[4] = biological target: recombinant extracellular portion of human IGF-IR (soluble IGF-IR) (human) (UniProt P08069); assay: inhibition of 125I-IGF-I binding to immobilized IGF-IR, A12 against 2F8
[5] = biological target: T1, native human IGF-IR on human tumor cells; assay: cell-based or functional assay
[6] = biological target: T1, native human IGF-IR on human tumor cells; assay: inhibition of 125I-IGF-I binding to MCF7 cells (the 3 nM is written at Table 4)
Experimental: (§1) The anti-IGF-IR antibodies were then tested for blocking of radiolabeled ligand to native IGF-IR on human tumor cells. […] MCF7 human breast cancer cells were seeded into 24 well dishes, and cultured overnight. Sub-confluent monolayers were washed 2-3 times in binding buffer (Iscove's Medium/0.1% BSA) and antibody added in binding buffer. […] The wells were then washed three times with ice-cold PBS/0.1% BSA. Monolayers were then lysed with 200 μl 0.5N NaOH and counted in a gamma counter.

[7] = biological target: recombinant extracellular portion of human IGF-IR (soluble IGF-IR) (human) (UniProt P08069); assay: human IGF-IR ELISA, full IgG; column head 'Binding (ED50)', concentration for 50% binding relative to saturation
[8] = biological target: recombinant extracellular portion of human IGF-IR (soluble IGF-IR) (human) (UniProt P08069); assay: inhibition of 125I-IGF-I binding to immobilized human IGF-IR, full IgG; 'Blocking (EC50)'
[9] = biological target: T1, native human IGF-IR on human tumor cells; assay: inhibition of 125I-IGF-I binding to 8226 (myeloma) cells
[10] = biological target: T1, native human IGF-IR on human tumor cells; assay: inhibition of 125I-IGF-I binding to MCF7 (breast) cells
Experimental: as §1

[11] = biological target: T1, native human IGF-IR on human tumor cells; assay: inhibition of 125I-IGF-I binding to T47D (breast) cells
[12] = biological target: T1, native human IGF-IR on human tumor cells; assay: cell-based or functional assay; remark: listed apart in the source
[13] = biological target: T1, native human IGF-IR on human tumor cells; assay: inhibition of 125I-IGF-I binding to HPAC (pancreatic) cells
[14] = biological target: T1, native human IGF-IR on human tumor cells; assay: cell-based or functional assay; remark: listed apart in the source
[15] = biological target: T1, native human IGF-IR on human tumor cells; assay: inhibition of 125I-IGF-I binding to HT-29 (colorectal) cells
[16] = biological target: T1, native human IGF-IR on human tumor cells; assay: inhibition of 125I-IGF-I binding to SK-ES1 (Ewing sarcoma) cells
[17] = biological target: T1, native human IGF-IR on human tumor cells; assay: inhibition of 125I-IGF-I binding to MCF7 cells
Experimental: as §1

[18] = biological target: recombinant extracellular portion of human IGF-IR (soluble IGF-IR) (human) (UniProt P08069); assay: inhibition of 125I-IGF-I binding to immobilized human IGF-IR, full IgG; 'Blocking (EC50)'; lower end of the printed range 3-6 nM
[19] = biological target: recombinant extracellular portion of human IGF-IR (soluble IGF-IR) (human) (UniProt P08069); assay: inhibition of 125I-IGF-I binding to immobilized human IGF-IR, full IgG; 'Blocking (EC50)'; upper end of the printed range 3-6 nM
[20] = biological target: recombinant extracellular portion of human IGF-IR (soluble IGF-IR) (human) (UniProt P08069); assay: BIAcore 3000, soluble IGF-IR immobilized on the chip, full IgG
[21] = biological target: recombinant extracellular portion of human IGF-IR (soluble IGF-IR) (human) (UniProt P08069); assay: BIAcore binding kinetic analysis

fold higher affinity relative to 2F8 [1]: 10 fold
IC50 [2]: 6 nM
IC50 [3]: 20 nM
fold increase in blocking activity relative to 2F8 [4]: > 3 fold
IC50 of inhibition of IGF-I-stimulated [3H]thymidine incorporation (mitogenesis), MCF7 breast [5]: 6 nM
IC50 of inhibition of mitogenesis, 8226 myeloma [5]: 5 nM
IC50 of inhibition of mitogenesis, BT474 breast [5]: 5 nM
IC50 of inhibition of mitogenesis, BXPC3 pancreatic [5]: 2 nM
IC50 of inhibition of mitogenesis, HT-29 colorectal [5]: 6 nM
IC50 of inhibition of mitogenesis, SK-ES1 Ewing sarcoma [5]: 10 nM
IC50 of inhibition of mitogenesis, T47D breast [5]: 7 nM
IC50 [6]: 0.45 µg/mL
EC50 [7]: 0.3 nM
IC50 [8]: 0.6 to 1 nM
IC50 [9]: 20 nM
IC50 [10]: 3 nM
IC50 [11]: 6 nM
surface IGF-IR staining of MCF7 cells (mean fluorescence intensity ratio) after 4 hours with A12; untreated cells 35.7, control 1 [12]: 3.3
IC50 [13]: 10 nM
reduction in IGF-IR surface staining of MCF7 cells after 4 h with 50 nM A12 at 37 C (FACS, mean fluorescence intensity ratio) [14]: 90%
IC50 [15]: 10 nM
IC50 [16]: 2 nM
B1: antibody A12, full length human IgG1 with lambda light chain (antibody, V domains shown)
VH: EVQLVQSGAEVKKPGSSVKVSCKASGGTFSSYAISWVRQAPGQGLEWMGGIIPIFGTANYAQKFQGRVTITADKSTSTAYMELSSLRSEDTAVYYCARAPLRFLEWSTQDHYYYYYMDVWGKGTTVTVSS
VL: SSELTQDPAVSVALGQTVRITCQGDSLRSYYATWYQQKPGQAPILVIYGENKRPSGIPDRFSGSSSGNTASLTITGAQAEDEADYYCKSRDGSGQHLVFGGGTKLTVLG
notes: also called IMC-A12; mAb A12

IC50 [17]: 30 nM and 4.5 µg/mL
IC50 [18]: > 3 nM
EC50 [7]: 2 nM
IC50 [19]: < 6 nM
Kd [20]: 0.65 nM
Kd [21]: 0.5 to 1 nM
B2: antibody 2F8, full length human IgG1 with lambda light chain (antibody, V domains shown)
VH: EVQLVQSGAEVKKPGSSVKVSCKASGGTFSSYAISWVRQAPGQGLEWMGGIIPIFGTANYAQKFQGRVTITADKSTSTAYMELSSLRSEDTAVYYCARAPLRFLEWSTQDHYYYYYMDVWGKGTTVTVSS
VL: SSELTQDPAVSVALGQTVRITCQGDSLRSYYASWYQQKPGQAPVLVIYGKNNRPSGIPDRFSGSSSGNTASLTITGAQAEDEADYYCNSRDNSDNRLIFGGGTKLTVLS
notes: Tested as full IgG1 (human gamma 1 constant region) with full-length lambda light chain; also called IMC-2F8; 2F8 IgG
